# Laboratory results taken from patent publication US20040256230A1, “Microfluidic devices for transverse electrophoresis and isoelectric focusing” (University of Washington, priority 1999, published 2004).
# Values joined by “and” are separate entries in the source; they are usually repeats but may differ in a detail not shown here. Equal values may be shown once.
# Assays:
# [1] = stated, literature or standard value; cited from earlier work
# [2] = Isoelectric point by polyacrylamide gel isoelectric focusing, compared with positions of standards; assay type: physicochemical; conditions: constant voltage, mini IEF cell
# Method: The isoelectric points (pI) of proteins were determined experimentally by polyacrylamide gel isoelectric focusing, using the procedure specified by BiORad Laboratories, Inc. (Hercules, Calif.). A mini IEF cell (Model 111) purchased from BiORad equipped by two graphite electrodes was employed for this purpose. Focusing was carried out under constant voltage conditions (Power Pac 1000, BiORad).
# (§1) Isoelectric points of proteins were determined by comparison with positions of standards.
# [3] = Isoelectric focusing in the microchannel (microfluidic IEF), position of the focused zone; assay type: physicochemical; conditions: 0.1 mM histidine buffer, initial pH 7.1, 2.5V for 6 minutes
# Method: Bovine hemoglobin (Hb) was selected as a test case because of its strong absorbance at 550 nm (facilitating observation without need for additional dyes). The pI of Hb is 7.1, as verified by polyacrylamide gel isoelectric focusing run at the same concentration as was used for IEF in the microchannel. […] A voltage of 2.5V (resulting in a current of 5 μA) was applied for 6 minutes. Two zones of higher optical density close to the electrodes were formed within 15 s. They moved towards each other meeting to form one dark zone after 5 minutes. Even with a relatively high concentration of Hb (1.55×10^−4 M), the darker zones and their migration were barely visible in color images. Normalized plots of green pixel values vs. position allowed monitoring of Hb migration. The position of the final focused zone of Hb in the microchannel corresponded to a pH of 7.1±0.3 on the basis of previous results with acid-base indicators under similar conditions (FIG. 8). The pI value determined by IEF in the microchannel was within experimental error, identical to that in the literature and that determined by our gel IEF experiment.
# [4] = Stability of the fluorescence of the BSA conjugate over a broad range of pH values; assay type: physicochemical; conditions: pH 2.5 to 10.0, 1.52 μM, excitation 495 nm, every 30 minutes for 4.5 hours
# Method: as §1
# The fluorescence of the BSA-Bodipy FL conjugate is reported to be insensitive to pH between 4 and 8. […] A fluorescence spectrum from 500-550 nm for an excitation wavelength of 495.0±2.5 nm was recorded for each of the solutions immediately after its preparation and then after each 30 minutes for 4.5 hours.
Compound,isoelectric point (pI) [1],pI determined by polyacrylamide gel isoelectric focusing [2],pH corresponding to the position of the final focused zone in the microchannel [3],change of fluorescence over time [4]
phycocyanin,4.65,–,–,–
"Bovine hemoglobin: bovine hemoglobin (Sigma), test analyte for isoelectric focusing",7.1,7.1,7.1±0.3,–
BSA conjugate: fluorescent bovine serum albumin (BSA)—Bodipy FL conjugate (Molecular Probes),–,4.6±0.1 and 4.65,–,did not significantly change
N[C@@H](Cc1c[nH]cn1)C(=O)O [histidine],7.4,–,–,–
human hemoglobin A: pI standard in gel isoelectric focusing,7.1,–,–,–
